# Laboratory results: article PMC6467980
# Columns and labels:
# P04501 = assay: SEC-MALS; Superdex 200 Increase 10/300 GL, 1X TBS, 1 mL/min; 100 µL at 2.5-2.8 mg/mL in PBS with 5% glycerol; native (oxidized) or reduced with DTT (1.6 mM, 50 °C 10 min, then a further 1.6 mM)
# [1] = target: recombinant human desmoglein 2 (human) (UniProt Q14126)
# [2] = target: recombinant human desmoglein 2 (human) (UniProt Q14126); remark: listed apart in the source
# [3] = target: JO-4 (Adenovirus serotype 3 (Ad3)) (UniProt P04501); assay: SEC-MALS; Superdex 200 Increase 10/300 GL, 1X TBS, 1 mL/min; 100 µL at 2.5-2.8 mg/mL in PBS with 5% glycerol; native (oxidized) or reduced with DTT (1.6 mM, 50 °C 10 min, then a further 1.6 mM)
# [4] = target: recombinant human desmoglein 2 (human) (UniProt Q14126); assay: SPR; rhDSG2 amine-coupled to a CM5 chip (6000 RU), junction openers flowed; Biacore 3000, 25 °C; 10 mM HEPES, 150 mM NaCl, 0.005% surfactant P20, 2 mM CaCl2 pH 7.4; 15 µl/min; 1:1 Langmuir fit; apparent (avidity)
# [5] = target: GB7_(V239D) (Adenovirus serotype 3 (Ad3)) (UniProt P04501); assay: SPR; JO-4 or GB7_(V239D) amine-coupled to a CM5 chip (approximately 6000 RU), rhDSG2 flowed (17.4 nM to 0.87 nM, triplicate); Biacore 3000, 25 °C; 10 mM HEPES, 150 mM NaCl, 0.005% surfactant P20, 2 mM CaCl2 pH 7.4; 15 µl/min; 1:1 Langmuir fit; apparent (avidity)
# [6] = target: JO-4 (Adenovirus serotype 3 (Ad3)) (UniProt P04501); assay: as above
substance,measurement,setting,value
JO-4,"% total as Aggregate (Agg.), oxidized",P04501,90%
same,"% total as Aggregate (Agg.), reduced",P04501,94%
JO-4 (from UniProt P04501 127-319) (designed binder),VIA IC50: inhibition of entry of Ad3-GFP reporter virus into HeLa cells (blocks Ad3 virus on DSG2),[1],0.067 µg/mL
same,"DSG2 shedding (fold over PBS treated at 48 h), ELISA of shed DSG2",[2],1.44 fold
same,"% total as Monomer (M), oxidized",[3],4%
same,"% total as Monomer (M), reduced",[3],3%
same,"% total as Multimer (Multi.), oxidized",[3],4%
same,"% total as Multimer (Multi.), reduced",[3],< 0.5%
same,"% total as Trimer (T), oxidized",[3],2%
same,"% total as Trimer (T), reduced",[3],2%
same,"% total as Trimer-Dimer (T-D), oxidized",[3],< 0.5%
same,"% total as Trimer-Dimer (T-D), reduced",[3],1%
same,stoichiometry N,[3],3
same,Kd,[4],11.4 nM
same,koff,[4],0.00264 s⁻¹
same,kon,[4],232000 M⁻¹ s⁻¹
recombinant human desmoglein 2 (from UniProt Q14126 50-609) (natural protein),Kd,[5],1.19 nM
same,koff,[5],0.00075 s⁻¹
same,kon,[5],630000 M⁻¹ s⁻¹
same,Kd,[6],0.58 nM
same,koff,[6],0.00046 s⁻¹
same,kon,[6],790000 M⁻¹ s⁻¹
